Drawing on the supplement of paper PMC12042874, this text covers amyloid nucleation score for 131 substances.

± gives the uncertainty stated by the source.

The data set is described as follows: amyloid nucleation score (Sup35N fusion, yeast selection) (log enrichment); library NNK3; higher = more nucleation; inactive = no reads after selection. The method in brief:
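The nucleation score is the DiMSum log enrichment of output over input reads, centred on the mode score of non-aggregating sequences. Only sequences with 100 or more input reads were scored, using Illumina sequencing of input and output plasmid inserts. Psi-negative yeast expressing Sup35N fused to peptides of 20 random codons were induced 24 hours with 100 μM copper sulfate and grown 7 days at 30°C on medium lacking adenine and uracil.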
As to TRITMASSREV, the amyloid nucleation score entry is “inactive”. Take TRLGYKKGFFMTSSSHRLMV: the amyloid nucleation score result was “inactive”. As for TRNPDKLCANVLDNRH, the amyloid nucleation score entry is “inactive”. With TRPGLKWWVLRRMRHFGRRV the entry was “inactive”; with TRVLSINRNTPANRLIGVGC, “inactive”; with TRVSWTFGINTSSGPSALHL, 0.995 ± 0.13.

As to TRWSVFKLRADDRNMQASKS, the amyloid nucleation score entry was “inactive”. TSDIDIY had an amyloid nucleation score of -0.397 ± 0.73. For TSFFNNFSLLFVLVWNVLRG, the amyloid nucleation score result was “inactive”.

Turning to TSGHVVTMEHRLLYVPTIGF, the amyloid nucleation score entry was “inactive”. As to TSGKGFYMLSVGVRVYQWDI, the amyloid nucleation score entry is “inactive”. Take TSHPYNHVESSG: the amyloid nucleation score amounted to 0.972 ± 0.095. The same measure for TSKLRQCGFL: “inactive”; for TSLFGIPQCRFRVRSWNDVV: “inactive”; for TSLGFSLSSSTDAFVEKFEG: 1.56 ± 0.077. As to TSLSRHTIPYNHVLYSTWW, the amyloid nucleation score result is “inactive”.

As for TSLWRLL, the amyloid nucleation score entry is “inactive”. As for TSMRKSACSWTLFSLR, the amyloid nucleation score result was “inactive”. For the substance TSTGYNPIYYIMMFN, the amyloid nucleation score was 0.677 ± 0.32. TSTHCIIWLGRSDRRREMQL registered an amyloid nucleation score of -0.752 ± 1.9. On to TSVNVWFPFLGVREGFGCSP, for which the amyloid nucleation score was found to be 1.37 ± 0.15. The same measure for TTCAVCRCIRGAMFNGSVSK: “inactive”; for TTCFTHGKLPNIRAWSIWTQ: “inactive”. Turning to TTEDLSVG, the amyloid nucleation score result is “inactive”. With TTFNRFVYPYGERYLG the entry was “inactive”. With TVGGFAWLDNSLSDRMFDTS, the amyloid nucleation score entry is “inactive”. With TVICELRNMRYS, the amyloid nucleation score was 1.81 ± 0.087.

In turn, TVIKPWLLICCDLFREVGFA came in with an amyloid nucleation score of 1.12 ± 0.14. Take TVIRRLYCLNGLVANTSFAV: the amyloid nucleation score result is “inactive”. With TVKYHGSPCVLHDLLIVERR, the amyloid nucleation score result is “inactive”. Consider TVLLIGNMWTYWAYMQCSWG, for which the amyloid nucleation score result was “inactive”.

For TVRGYRLAHYIAAGYSCMSR, the amyloid nucleation score entry was “inactive”. With TVSGNKYISDRVQN the entry was “inactive”. The same measure for TVSIRIINT: 0.15 ± 0.66; for TVSKCSERRVCTPGDSCVAC: “inactive”; for TVVDLVIFG: “inactive”. In turn, TVVVGLVGF showed an amyloid nucleation score of 0.825 ± 0.2. Consider TWCAHS, for which the amyloid nucleation score result is “inactive”. In the case of TWKQDWDNFSYVLNSSSHST, the amyloid nucleation score result was “inactive”.

For the substance TWLFFRNHTQAFCSYLAHWG, the amyloid nucleation score result is “inactive”.

TWLIGHGAVIVRLYNFYMAI: the amyloid nucleation score result is “inactive”.

Consider TWQVVNSPYPMRNIPYRSRW, for which the amyloid nucleation score result is “inactive”.

The substance TWSMNIIMCLNRQVDQGFSL came in with an amyloid nucleation score of 1.82 ± 0.075.

For the substance TWVVYFVVRMCVQGSVYSMA, the amyloid nucleation score result is “inactive”.

TWWSLGSVELVLWFKSCCDF registered an amyloid nucleation score of 1.44 ± 0.083. Turning to TWWWDTKLVRRPCSRGWVTC, the amyloid nucleation score result was “inactive”.

As for TWYRCD, the amyloid nucleation score result is “inactive”. Take TYCSYTL: the amyloid nucleation score entry is “inactive”. With TYEGITVVTFVSYSYAIREP the figure was 0.703 ± 0.096; with TYFYSIIYYIYGYVFLRRAY, -0.346 ± 0.8; with TYLCFYTKRPDAVYWSTLDH, “inactive”. Take TYMFMVAYNVSTRPRKLLNC: the amyloid nucleation score result was “inactive”. Consider TYMPAVIIYRVLQAMTAAHH, for which the amyloid nucleation score entry is “inactive”. For TYRSTLSVSMAVRGSEMLD, the amyloid nucleation score is -0.085 ± 1.

TYVGV: the amyloid nucleation score entry was “inactive”. As for TYVRIGVCGVLWFCTFFTQC, the amyloid nucleation score result was “inactive”.

In the case of VACHRS, the amyloid nucleation score entry was “inactive”. Turning to VADRVSSK, the amyloid nucleation score result is “inactive”. In the case of VAEEHSVLSCQDADFCASSL, the amyloid nucleation score entry is “inactive”. As to VAFTLDGKARDKYRNGDHNK, the amyloid nucleation score result is “inactive”. The same measure for VAFTLIVRFCS: “inactive”. In the case of VAIGYIASVLK, the amyloid nucleation score entry was “inactive”. As for VALAVMQKLNMRYIYNPCFV, the amyloid nucleation score result is “inactive”. With VAMVSGIG, the amyloid nucleation score entry is “inactive”. Substance VARISYLEIHNGETNFTYWF registered an amyloid nucleation score of 2.47 ± 0.062. On to VARNGDLF, for which the amyloid nucleation score entry was “inactive”. For VASVWLDIPMYLFSQLRTKT, the amyloid nucleation score result was “inactive”.

VATHTSASHLRS: the amyloid nucleation score result is “inactive”.

On to VAYRTGSDG, for which the amyloid nucleation score result was “inactive”. The same measure for VCAGNTDPWSQELIPYRKC: “inactive”; for VCASIGCRTGD: “inactive”; for VCDTM: “inactive”.

For VCFFRVKRSYSNIFYTRRCR, the amyloid nucleation score entry is “inactive”.

In the case of VCFNYDLFYMIRMGFEAVHI, the amyloid nucleation score entry was “inactive”. Turning to VCGIYYVFLAGWEHKSRSKE, the amyloid nucleation score turned out to be 1.86 ± 0.089. Consider VCGNMVSLVVHPFLFSYVCD, for which the amyloid nucleation score result is “inactive”.

Regarding VCIRTFLSLVSDCNACWSQL, the amyloid nucleation score result was “inactive”. On to VCLLNWFWIYDQYVRQLTVV, for which the amyloid nucleation score entry was “inactive”. VCLWTVDLRIVTEGLGSHRG: the amyloid nucleation score result was “inactive”. With VCVKPLCFLAHMYGKC the entry was “inactive”; with VCYDVCGRGWTCQY, -0.011 ± 0.42; with VCYVKYSSLLCMNLGIRHRT, “inactive”. As to VDDIPYRFKTIKTTG, the amyloid nucleation score result was “inactive”.

Take VDFYLR: the amyloid nucleation score entry is “inactive”. The same measure for VDHSLVWDHWTLRDIPCKTG: “inactive”. For the substance VDLWYIFGPSPYATCFVLLV, the amyloid nucleation score result was “inactive”. The same measure for VDQHGFATKGPVLSKVIGHS: “inactive”; for VDRDSWSVPFCALQKHRMQK: “inactive”; for VDRVT: “inactive”.

Turning to VDTILSNKVYVRAPPKRGSK, the amyloid nucleation score result is “inactive”. Take VEALILSVRKCVFGLPVPAL: the amyloid nucleation score entry is “inactive”.

In the case of VECSIVLCII, the amyloid nucleation score was 2.26 ± 0.051. In the case of VEKCKLLFVTTHECLCHCSR, the amyloid nucleation score result was “inactive”. Regarding VETSCGRMHVLHLTGSGYSM, the amyloid nucleation score entry was “inactive”. With VFAFTKMESRFLLGLRVDEY the figure was 0.729 ± 0.15.

Regarding VFETEKLSHFKCEVLDCQ, the amyloid nucleation score result was “inactive”. In the case of VFFETNVMGQEWYGGHVKR, the amyloid nucleation score result was “inactive”. The same measure for VFHRSSLNSSRAGWH: “inactive”; for VFKFVLLSLYMFQWGNAFPM: “inactive”; for VFLKTVAKQFCLANVKRSH: “inactive”. Turning to VFLNWRGMNHSLRAFNIESQ, the amyloid nucleation score entry is “inactive”. Turning to VFLPGRSIKWFLMAEKLRNH, the amyloid nucleation score result was “inactive”.

For VFLSCSCRWMVYGYNLTADC, the amyloid nucleation score result was “inactive”. Consider VFLSWCAGSKGFSGVCRI, for which the amyloid nucleation score came out at 0.6 ± 0.2.

Turning to VFMCLANYMFPIPGNRHVPP, the amyloid nucleation score was 0.053 ± 0.75. Regarding VFPPEMRVFPLFCW, the amyloid nucleation score entry was “inactive”. In turn, VFSFDMLHRLG yielded an amyloid nucleation score of 1.53 ± 0.099.

For the substance VFSFRTYNLYGEDNEQLLHW, the amyloid nucleation score result is “inactive”. For the substance VFVKLQHVGMSLGSFFPGSM, the amyloid nucleation score amounted to 0.85 ± 0.19.

Turning to VFVSS, the amyloid nucleation score is -0.36 ± 1.

On to VFVVLLALSYGSDNTV, for which the amyloid nucleation score result was “inactive”. In the case of VFWLRYMNVSRANARGNAS, the amyloid nucleation score entry was “inactive”. Turning to VGCIRGNGFVTQQATGY, the amyloid nucleation score result is “inactive”. The same measure for VGIALASIK: “inactive”; for VGILLFFYLTNVEQAVTFVR: “inactive”; for VGNEECIYQIRFFLRLSGSL: “inactive”. As to VGNLCVLKGTTIMFGIMGST, the amyloid nucleation score turned out to be 1.18 ± 0.14. Regarding VGQYGRFDTSQFCVFVVGE, the amyloid nucleation score entry was “inactive”. On to VGRAEWLC, for which the amyloid nucleation score result was “inactive”.

Turning to VGSPWSYKG, the amyloid nucleation score result was “inactive”. As for VGTGVM, the amyloid nucleation score result was “inactive”. Turning to VGTLRSAGIIMVSRELVMRV, the amyloid nucleation score entry was “inactive”. The same measure for VGWTVGYKW: “inactive”; for VGYAKYPSNRVRIYRGFENV: “inactive”. VHFKCLRRCVGVIDRCINRH: the amyloid nucleation score entry was “inactive”.

As for VHFSVMVGKKDDPSLF, the amyloid nucleation score entry was “inactive”. With VHLSWFSIIVRVDEGDWARR the figure was -0.839 ± 1.5; with VHLYADPDVMQYNRWDVVGY, “inactive”; with VHLYEFRLNAACSCPSDRYG, “inactive”.

As to VHVRWVVRMVSWKYLAGILL, the amyloid nucleation score result is “inactive”. The same measure for VHVVLIIWTSHQLTCADLAY: “inactive”.
